Key:
[1] = tested on: PuPuf4 (Pythium ultimum); assay: MST; conditions: MST: 50 mM Tris pH 7.5, 150 mM NaCl, 10 mM MgCl2, 0.05% Tween 20, 25 C; EMSA: Beyotime EMSA/Gel-Shift Binding Buffer, 50 ng RNA, 25 C 30 min, 1% agarose gel
[2] = tested on: PuPuf4 R111A F147A K368A (Pythium ultimum); assay: MST; conditions: MST: 50 mM Tris pH 7.5, 150 mM NaCl, 10 mM MgCl2, 0.05% Tween 20, 25 C; EMSA: Beyotime EMSA/Gel-Shift Binding Buffer, 50 ng RNA, 25 C 30 min, 1% agarose gel

“GCCCAGUGCUCUGAAUGUCAAAGUGAAGAGAUUCACCAAGCGGCGGGUAAACGCG [H68 rRNA]” gave a Kd [1] of 240 nM and a Kd [2] of 620 nM.
